Experiments:
MAB01 heavy chain = assay: Antibody degradation by Pichia-expressed T. reesei proteases (MAB01); format: biochemical
Experimental: The T. reesei aspartic proteases pep3 (tre121133) and pep7 (tre58669) expressed from Pichia were also tested in vitro, by measuring the degradation of the MAB01 antibody and IGF-1. Degradation of MAB01 and IGF-1 by pep3 and pep7 was analyzed by immunoblotting. The aspartic proteases were produced in Pichia supernatants. Pichia supernatants were diluted to 1× concentration, and then mixed with 50 mM sodium citrate buffer, pH 5.5. MAB01 was added to each reaction so that the final concentration would be 0.05 μg IGF-1 was added to each reaction so that the final concentration would be 0.30 μg μl. Ten microliters of each reaction mixture was then sampled and added to 3 μl of Laemmli sample buffer with β-mercaptoethanol. The samples were heated at 95° C. for 5 minutes before being loaded into a 4-15% PAGE gel (BioRad mini-protean TGX precast gel) along with an all blue precision plus prestained molecular weight marker (BioRad). The PAGE gel was run for 30 minutes at 200V. The proteins in the gel were then electrotransferred into a nitrocellulose filter at 100V for 1 hour. The protein containing nitrocellulose filter was then blocked with 5% milk powder in Tris buffered saline with 0.1% tween (TBST) for 1 hour shaking at room temperature. The blocked membranes were then probed with antibody. The MAB01 containing membranes were probed with an anti-IgG heavy chain antibody AP conjugate (Sigma #A3188) diluted 1:30,000 in TBST. The IGF-1 samples were analyzed using a primary anti-IGF-1 antibody (1:2000 in TBST) and anti-IgG AP conjugated secondary antibody (1:5000 in TBST). All antibody incubations were done for 1 hour at room temperature on a shaker. The membranes were then washed with 3 changes of TBST for 20 minutes each on the shaker. The membranes were developed with the BCIP/NBT alkaline phosphatase substrate (Promega #S3771) for up to 5 minutes.
Pichia supernatants containing Trichoderma reesei gap2 were also studied in vitro. The gap2 containing supernatant and MAB01 antibody were diluted into sodium citrate buffers adjusted to pH 4.0, 4.5, 5.0, and 5.5, and incubated for 20 hours at 37° C. Samples were taken at 0 minutes and after 20 hours. MAB01 heavy chain production was analyzed by immunoblotting using an anti-IgG heavy chain (Sigma #A3188) antibody AP conjugate.
(§1) The Trichoderma reesei subtilisin proteases slp5, slp6, and slp7 were overproduced in Pichia supernatants for investigation of their activity against the antibody rituximab and MAB01 heavy chains (FIG. 25). The rituximan mock supernatant was compared to supernatants containing slp5 and slp6 (FIG. 25 A). The MAB01 mock supernatant was compared to supernatants containing slp7 (FIG. 25B). Rituximab and MAB01 were added to the protease-containing Pichia supernatants and incubated overnight at 37° C. Samples were taken and analyzed by immunoblotting with an anti-heavy chain AP conjugated antibody.

rituximab heavy chain = assay: Antibody degradation by Pichia-expressed T. reesei proteases (rituximab); format: biochemical; conditions: overnight 37°C
Experimental: as §1

[1] = pH 5.5, 37°C, overnight/20 hours

Row | Molecule | MAB01 degrading activity (MAB01 heavy chain; pH 4.5, 37°C, overnight) | degradation of MAB01 heavy chain vs mock supernatant (MAB01 heavy chain; Pichia supernatant, overnight 37°C) | degradation of rituximab heavy chain vs mock supernatant (rituximab heavy chain) | MAB01 degrading activity (MAB01 heavy chain; [1]) | proteolytic activity against heavy chain MAB01 (MAB01 heavy chain; pH 4.0, 37°C, 20 hours)
1 | pep7: T. reesei aspartic protease tre58669 expressed from Pichia (protein, listed as Trichoderma reesei) MTLPVPLREHDLPFLKEKRKLPADDIPSGTYTLPIIHARRPKLASRAIEVQVENRSDVSYYAQLNIGTPPQTVYAQIDTGSFELWVNPNCSNVQSADQRFCRAIGFYDPSSSSTADVTSQSARLRYGIGSADVTYVHDTISLPGSGSGSKAMKAVQFGVADTSVDEFSGILGLGAGNGINTEYPNFVDELAAQGVTATKAFSLALGSKAEEEGVIIFGGVDTAKFHGELAHLPIVPADDSPDGVARYWVKMKSISLTPPPPSSSGSTDDNNNKPVAFPQTSMTVFLDSGSTLTLLPPALVRQIASALGSTQTDESGFFVVDCALASQDGTIDFEFDGVTIRVPYAEMIRQVSTLPPHCYLGMMGSTQFALLGDTFLRSAYAVFDLTSNVVHLAPYANCGTNVKSITSTSSLSNLVGTCNDPSKPSSSPSPSQTPSASPSSTATQKA | minimal antibody degrading activity | – | – | – | –
2 | slp6: T. reesei subtilisin protease overproduced in Pichia supernatant (protein, listed as Trichoderma reesei) MASLRRLALYLGALLPAVLAAPAVNYKLPEAVPNKFIVTLKDGASVDTDSHLTWVKDLHRRSLGKRSTAGVEKTYNIDSWNAYAGEFDEETVKQIKANPDVASVEPDYIMWLSDIVEDKRALTTQTGAPWGLGTVSHRTPGSTSYIYDTSAGSGTFAYVVDSGINIAHQQFGGRASLGYNAAGGDHVDTLGHGTHVSGTIGGSTYGVAKQASLISVKVFQGNSASTSVILDGYNWAVNDIVSRNRASKSAINMSLGGPASSTWATAINAAFNKGVLTIVAAGNGDALGNPQPVSSTSPANVPNAITVAALDINWRTASFTNYGAGVDVFAPGVNILSSWIGSNTATNTISGTSMATPHVVGLALYLQALEGLSTPTAVTNRIKALATTGRVTGSLNGSPNTLIFNGNSA | – | light degradation | heavy degradation activity | – | –
3 | pep3: T. reesei aspartic protease tre121133 expressed from Pichia (protein, listed as Trichoderma reesei) MEAILQAQAKFRLDRGLQKITAVRNKNYKRHGPKSYVYLLNRFGFEPTKPGPYFQQHRIHQRGLAHPDFKAAVGGRVTRQKVLAKKVKEDGTVDAGGSKTGEVDAEDQQNDSEYLCEVTIGTPGQKLMLDFDTGSSDLWVFSTELSKHLQENHAIFDPKKSSTFKPLKDQTWQISYGDGSSASGTCGSDTVTLGGLSIKNQTIELASKLAPQFAQGTGDGLLGLAWPQINTVQTDGRPTPANTPVANMIQQDDIPSDAQLFTAAFYSERDENAESFYTFGYIDQDLVSASGQEIAWTDVDNSQGFWMFPSTKTTINGKDISQEGNTAIADTGTTLALVSDEVCEALYKAIPGAKYDDNQQGYVFPINTDASSLPELKVSVGNTQFVIQPEDLAFAPADDSNWYGGVQSRGSNPFDILGDVFLKSVYAIFDQGNQRFGAVPKIQAKQNLQPPQ | higher | – | – | low MAB01 degrading activity | –
4 | gap2: T. reesei glutamic protease tre106661 in Pichia supernatant (protein, listed as Trichoderma reesei) MDAIRARSAARRSNRFQAGSSKNVNGTADVESTNWAGAAITTSGVTEVSGTFTVPRPSVPAGGSSREEYCGAAWVGIDGYSDADLIQTGVLWCVEDGEYLYEAWYEYLPAALVEYSGISVTAGSVVTVTATKTGTNSGVTTLTSGGKTVSHTFSRQNSPLPGTSAEWIVEDFTSGSSLVPFADFGSVTFTGATAVVNGATVTAGGDSPVIIDLEDSRGDILTSTTVSGSTVTVEYE | – | – | – | low | maximal proteolytic activity

— patent US11180767B2, “Protease deficient filamentous fungal cells and methods of use thereof” (GLYKOS FINLAND OY, priority 2012, dated 2021)
